Measurements reported in publication PMC13381548.

Tested on: NX4-NS20-NX1 (X-NS20-X) (designed (from TALE PthXo1))
Test: BLI
Conditions: BLI: 25 mM Tris (pH 7 for NS20, pH 8 for NS14), 150 mM NaCl, 10 mM MgCl2, 0.5% BSA, 0.5% Tween-20, 25 C, EMSA: 1% agarose, 1x TAE, 110 V

| Sequence | Kd [nM] | Kd (10 mM MgCl2, stated weak interactions, Kd > ~700 nM) [nM] |
| --- | --- | --- |
| AAAAAAATCTAGCAACCTCAAACAGACACCAGA (double strand) [X-NS20-X target] | 45 | – |
| AAAAAAATCAGACCGACATCTAATCCGCAACGA (double strand) [X-NS20-X random] | – | > 700 |
